How the values were obtained:
[1] = system: A-beta 1-40 (fluorescein/Lys-biotin labelled synthetic peptide)
[2] = system: T1, ANP (fluorescein/Lys-biotin labelled synthetic peptide)
T1 sequence: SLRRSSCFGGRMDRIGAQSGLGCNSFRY

[3] = system: Angiotensin (fluorescein/Lys-biotin labelled synthetic peptide)
[4] = system: Bradykinin (fluorescein/Lys-biotin labelled synthetic peptide)
[5] = system: Endothelin-1 (average of the 1a and 1b isoforms)
[6] = system: GIP (fluorescein/Lys-biotin labelled synthetic peptide)
[7] = system: GLP-1 (fluorescein/Lys-biotin labelled synthetic peptide)
[8] = system: Glucagon (fluorescein/Lys-biotin labelled synthetic peptide)
[9] = system: Neurotensin (fluorescein/Lys-biotin labelled synthetic peptide)
[10] = system: T2, Somatostatin 1-28 (fluorescein/Lys-biotin labelled synthetic peptide)
T2 sequence: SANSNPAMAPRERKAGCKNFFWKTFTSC

Sequence of Glucagon (fluorescein/Lys-biotin labelled synthetic peptide) (chain, as listed by the source): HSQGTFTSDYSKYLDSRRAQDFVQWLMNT
Sequence of A-beta 1-40 (fluorescein/Lys-biotin labelled synthetic peptide) (peptide, as listed by the source): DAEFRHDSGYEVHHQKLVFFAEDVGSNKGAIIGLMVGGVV
Sequence of GLP-1 (fluorescein/Lys-biotin labelled synthetic peptide) (chain, as listed by the source): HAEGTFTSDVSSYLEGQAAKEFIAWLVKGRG
Sequence of GIP (fluorescein/Lys-biotin labelled synthetic peptide) (chain, as listed by the source): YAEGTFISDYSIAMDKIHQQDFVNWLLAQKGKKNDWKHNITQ

Substance: HSA-Nep-G399V/G714K
- kcat/KM [1]: 55000 M⁻¹ s⁻¹
- ratio of kcat/KM, mutant vs wild type [1]: 4.2
- kcat/KM [2]: 42000 M⁻¹ s⁻¹
- ratio of kcat/KM, mutant vs wild type [2]: 0.15
- kcat/KM [3]: 14000 M⁻¹ s⁻¹
- ratio of kcat/KM, mutant vs wild type [3]: 0.012
- kcat/KM [4]: 85 M⁻¹ s⁻¹
- ratio of kcat/KM, mutant vs wild type [4]: 0.00017
- kcat/KM [5]: 62000 M⁻¹ s⁻¹
- ratio of kcat/KM, mutant vs wild type [5]: 0.21
- kcat/KM [6]: 130 M⁻¹ s⁻¹
- ratio of kcat/KM, mutant vs wild type [6]: 0.28
- kcat/KM [7]: 36000 M⁻¹ s⁻¹
- ratio of kcat/KM, mutant vs wild type [7]: 0.25
- kcat/KM [8]: 88000 M⁻¹ s⁻¹
- ratio of kcat/KM, mutant vs wild type [8]: 0.35
- kcat/KM [9]: 2600 M⁻¹ s⁻¹
- ratio of kcat/KM, mutant vs wild type [9]: 0.004
- kcat/KM [10]: 3000 M⁻¹ s⁻¹
- ratio of kcat/KM, mutant vs wild type [10]: 0.0054

— patent publication US20120237496
